Common to all, as to conditions: both partners purified
Assay [1] concerns the target T1, GST-hRpn10^305–377 (human, UniProt P55036 305-377).
T1 construct: pGEX-6P-3; a PreScission site lies between GST and hRpn10; source: E. coli Rosetta 2 (DE3), purified (glutathione sepharose, glutathione elution, SEC); not shown: GST, N-terminal, kept
T1 sequence (looked up): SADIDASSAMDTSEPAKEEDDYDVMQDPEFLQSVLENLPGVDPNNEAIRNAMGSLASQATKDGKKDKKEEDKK
The assay can be described thus: SPR; Biacore T200; GST-hRpn10 305-377 captured (800 RU) by anti-GST antibody on a CM5 chip, GST on the reference cell; E6AP AZUL 5-250 nM in HBS-P+ with 10 μM zinc sulfate, single cycle kinetics, triplicate. In general terms: Surface plasmon resonance follows binding to a sensor surface in real time, without labels.

Assay [2] addresses T2, hRpn10^305–377 (RAZUL, Rpn10 AZUL-binding domain) (human, UniProt P55036 305-377).
T2 construct: Isotope-labelled (15N, 13C, 2H) in some NMR samples; also called hRpn10 RAZUL; source: E. coli Rosetta 2 (DE3), purified (glutathione sepharose, PreScission cleavage, SEC); not shown: GST, N-terminal, cleaved
T2 sequence (looked up): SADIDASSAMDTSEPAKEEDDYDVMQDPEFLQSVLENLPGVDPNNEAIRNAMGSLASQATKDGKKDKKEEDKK
Nature of the assay: ITC; 25 °C, MicroCal iTC200; E6AP AZUL injected into hRpn10 305-377 (0.0405 mM) or hRpn10 322-366 peptides (0.01 mM) in the cell; 10 mM MOPS pH 6.5, 50 mM NaCl, 5 mM DTT, 10 μM zinc sulfate; one-site fit. On the technique in general: Isothermal titration calorimetry measures the heat released or taken up as one component is titrated into another.

Assay [3] has as its target T3, full-length E6AP (Isoform II) (human, UniProt Q05086 1-875).
T3 construct: E6AP/UBE3A, isoform II, full length; catalytic cysteine C843 in isoform II; also called UBE3A; source: bought: UBPBio K1411
Nature of the assay: pull-down; 2 nmol His-tagged hRpn10 construct on Ni-NTA agarose, 200 pmol E6AP for 1 h; 10 mM MOPS pH 6.5, 50 mM NaCl, 5 mM 2-mercaptoethanol, 10 μM zinc sulfate; Coomassie staining.

Assay [4] has as its target ubiquitin (UniProt P0CG48 1-76). The assay can be described thus: NMR titration; 2D NMR on 15N-hRpn10 196-377, ubiquitin added; 25 °C, 10 mM MOPS pH 6.5, 50 mM NaCl, 5 mM DTT, 10 μM zinc sulfate.

T3 sequence (Q05086 whole entry, canonical isoform): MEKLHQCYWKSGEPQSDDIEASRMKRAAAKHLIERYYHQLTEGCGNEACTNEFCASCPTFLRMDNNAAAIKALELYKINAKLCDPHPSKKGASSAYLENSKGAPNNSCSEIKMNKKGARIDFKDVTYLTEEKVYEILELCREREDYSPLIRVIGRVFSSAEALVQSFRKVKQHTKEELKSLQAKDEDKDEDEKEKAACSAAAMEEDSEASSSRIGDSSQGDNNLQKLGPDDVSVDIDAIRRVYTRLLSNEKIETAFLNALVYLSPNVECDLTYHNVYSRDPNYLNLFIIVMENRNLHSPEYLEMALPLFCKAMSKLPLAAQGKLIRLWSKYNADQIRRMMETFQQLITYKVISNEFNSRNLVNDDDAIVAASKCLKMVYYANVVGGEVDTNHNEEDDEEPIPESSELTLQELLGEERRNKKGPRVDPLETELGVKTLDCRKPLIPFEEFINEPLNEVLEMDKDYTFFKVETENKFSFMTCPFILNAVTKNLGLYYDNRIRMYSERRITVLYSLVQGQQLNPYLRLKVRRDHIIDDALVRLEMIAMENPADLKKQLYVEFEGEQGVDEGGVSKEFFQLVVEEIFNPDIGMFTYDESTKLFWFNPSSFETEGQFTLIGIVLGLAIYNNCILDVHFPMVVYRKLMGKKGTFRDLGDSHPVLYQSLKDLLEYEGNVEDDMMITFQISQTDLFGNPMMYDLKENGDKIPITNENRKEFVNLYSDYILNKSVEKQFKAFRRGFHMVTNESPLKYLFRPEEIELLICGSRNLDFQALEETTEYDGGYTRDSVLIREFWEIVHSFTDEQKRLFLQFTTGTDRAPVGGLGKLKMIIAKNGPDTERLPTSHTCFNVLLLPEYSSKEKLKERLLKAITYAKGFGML

B1: E6AP AZUL (amino-terminal zinc-binding domain of ubiquitin E3a ligase), amino acids 24 to 87 (domain or fragment, human, UniProt Q05086 24-87, looked up)
chain: MKRAAAKHLIERYYHQLTEGCGNEACTNEFCASCPTFLRMDNNAAAIKALELYKINAKLCDPHP
notes: E6AP/UBE3A AZUL domain, human, amino acids 24 to 87, subcloned from HA-E6AP isoform II; zinc sulfate in the buffers; Isotope-labelled (15N, 13C) in some NMR samples; also called AZUL domain; source: E. coli BL21 (DE3), purified (Ni-NTA, thrombin cleavage, SEC); not shown: polyhistidine tag, N-terminal, cleaved
In general, Kd refers to a measure of binding affinity in units of concentration. Turning to B1, the Kd in assay [1] stood at 8.1 nM; in assay [2], 11.6 nM.

B2: His-hRpn10^full-length (natural protein, human, UniProt P55036 1-377, looked up)
chain: MVLESTMVCVDNSEYMRNGDFLPTRLQAQQDAVNIVCHSKTRSNPENNVGLITLANDCEVLTTLTPDTGRILSKLHTVQPKGKITFCTGIRVAHLALKHRQGKNHKMRIIAFVGSPVEDNEKDLVKLAKRLKKEKVNVDIINFGEEEVNTEKLTAFVNTLNGKDGTGSHLVTVPPGPSLADALISSPILAGEGGAMLGLGASDFEFGVDPSADPELALALRVSMEEQRQRQEEEARRAAAASAAEAGIATTGTEDSDDALLKMTISQQEFGRTGLPDLSSMTEEEQIAYAMQMSLQGAEFGQAESADIDASSAMDTSEPAKEEDDYDVMQDPEFLQSVLENLPGVDPNNEAIRNAMGSLASQATKDGKKDKKEEDKK
notes: human Rpn10 (hRpn10/PSMD4/S5a), full length; pET11d plasmid, a gift from Dr Fumio Hanaoka; also called His6-hRpn10^full-length; source: E. coli BL21 (DE3), purified (Ni-NTA, imidazole elution, SEC); not shown: His6, N-terminal, kept
Consider B2, for which the binding result in assay [3] was “binds”.

B3: His-hRpn10^196–377 (domain or fragment, human, UniProt P55036 196-377, looked up)
chain: MLGLGASDFEFGVDPSADPELALALRVSMEEQRQRQEEEARRAAAASAAEAGIATTGTEDSDDALLKMTISQQEFGRTGLPDLSSMTEEEQIAYAMQMSLQGAEFGQAESADIDASSAMDTSEPAKEEDDYDVMQDPEFLQSVLENLPGVDPNNEAIRNAMGSLASQATKDGKKDKKEEDKK
notes: pET14b with a thrombin site; the methods say that it was eluted with the His-tag intact; 15N-labelled for the NMR experiment with ubiquitin; source: E. coli BL21 (DE3), purified (Ni-NTA, imidazole elution, SEC); not shown: polyhistidine tag, N-terminal, kept
Regarding B3, the binding result in assay [3] and in assay [4] was “binds” throughout.
